Assay results published in the supplement of paper PMC9112550, “Optimization of the antimicrobial peptide Bac7 by deep mutational scanning” (BMC Biology, 2022).

System: Escherichia coli TOP10
Assay: shrunken log2 fold change of peptide-encoding DNA abundance (4.5 h post-induction vs induction); higher = less antimicrobial activity (less host growth inhibition)
Details: time post-induction: 4.5 h; library: site-saturation at positions 5, 18, 19, 20
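Further: peptides expressed intracellularly from a pBAD plasmid library in pooled LB shake-flask culture, induced with 0.3% L-arabinose, DNA abundance read by NGS, three biological replicates, DESeq2 with apeglm shrinkage.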

Sequence | shrunken log2 fold change
RRIRQRPPRLPRPRPRPHDMPRP | -0.364
RRIRWRPPRLPRPRPRPLVLPRP | 0.0697
RRIRFRPPRLPRPRPRPARMPRP | 0.296
RRIRKRPPRLPRPRPRPVIWPRP | 0.153
RRIRARPPRLPRPRPRPVKNPRP | 0.384
RRIRQRPPRLPRPRPRPNTGPRP | -0.766
RRIRWRPPRLPRPRPRPVDSPRP | 0.183
RRIRGRPPRLPRPRPRPAYFPRP | 0.235
RRIRCRPPRLPRPRPRPSGDPRP | -0.195
RRIRGRPPRLPRPRPRPYPFPRP | -0.164
RRIRHRPPRLPRPRPRPMHYPRP | -0.289
RRIRPRPPRLPRPRPRPCQGPRP | 0.056
RRIRHRPPRLPRPRPRPDVKPRP | -0.0186
RRIRLRPPRLPRPRPRPEVKPRP | -0.108
RRIRHRPPRLPRPRPRPVENPRP | -0.0355
RRIRFRPPRLPRPRPRPKITPRP | -0.448
RRIRCRPPRLPRPRPRPCDHPRP | 0.0959
RRIRRRPPRLPRPRPRPKIKPRP | -0.0183
RRIRKRPPRLPRPRPRPELLPRP | 0.394
RRIRERPPRLPRPRPRPDRPPRP | -0.165
RRIRFRPPRLPRPRPRPRTLPRP | 0.165
RRIRHRPPRLPRPRPRPKKEPRP | -0.0501
RRIRIRPPRLPRPRPRPSFVPRP | -0.509
RRIRNRPPRLPRPRPRPMWPPRP | -0.00481
RRIRFRPPRLPRPRPRPVDGPRP | 0.148

Sequence | shrunken log2 fold change
RRIRMRPPRLPRPRPRPCTWPRP | -0.0287
RRIRDRPPRLPRPRPRPCFLPRP | -0.106
RRIRCRPPRLPRPRPRPASCPRP | 0.209
RRIRGRPPRLPRPRPRPCTYPRP | 0.00971
RRIRQRPPRLPRPRPRPESHPRP | -0.159
RRIRARPPRLPRPRPRPCGYPRP | 0.0562
RRIRKRPPRLPRPRPRPLLFPRP | 0.176
RRIRQRPPRLPRPRPRPTEFPRP | -0.113
RRIRIRPPRLPRPRPRPVHNPRP | -0.357
RRIRVRPPRLPRPRPRPFYIPRP | -0.457
RRIRLRPPRLPRPRPRPIIHPRP | -0.186
RRIRARPPRLPRPRPRPQHGPRP | -0.265
RRIRLRPPRLPRPRPRPHLEPRP | 0.0765
RRIRWRPPRLPRPRPRPGWFPRP | 0.249
RRIRRRPPRLPRPRPRPCSRPRP | 0.00396
RRIRMRPPRLPRPRPRPGFPPRP | 0.446
RRIRQRPPRLPRPRPRPCQFPRP | 0.0287
RRIRIRPPRLPRPRPRPWKRPRP | -0.0143
RRIRRRPPRLPRPRPRPAAYPRP | 0.585
RRIRWRPPRLPRPRPRPYTPPRP | -0.72
RRIRGRPPRLPRPRPRPFRIPRP | -0.212
RRIRLRPPRLPRPRPRPCSRPRP | 0.06
RRIRHRPPRLPRPRPRPASCPRP | -0.5
RRIRNRPPRLPRPRPRPEYSPRP | -0.272
RRIRNRPPRLPRPRPRPNDCPRP | 0.0423

Sequence | shrunken log2 fold change
RRIRHRPPRLPRPRPRPHESPRP | -0.0218
RRIRKRPPRLPRPRPRPFPEPRP | 0.273
RRIRIRPPRLPRPRPRPAPNPRP | 0.0272
RRIRIRPPRLPRPRPRPFMLPRP | -0.407
RRIRMRPPRLPRPRPRPSTDPRP | 0.949
RRIRNRPPRLPRPRPRPNNHPRP | -0.741
RRIRFRPPRLPRPRPRPPLNPRP | 0.0971
RRIRNRPPRLPRPRPRPLDDPRP | -0.0578
RRIRARPPRLPRPRPRPQFHPRP | -0.116
RRIRSRPPRLPRPRPRPYQEPRP | -0.157
RRIRFRPPRLPRPRPRPNVGPRP | -0.0278
RRIRMRPPRLPRPRPRPDDWPRP | 3.03
RRIRVRPPRLPRPRPRPMYVPRP | 3.48
RRIRSRPPRLPRPRPRPPDVPRP | 0.14
RRIRARPPRLPRPRPRPCTLPRP | 0.151
RRIRARPPRLPRPRPRPYDIPRP | 0.00126
RRIRDRPPRLPRPRPRPKKGPRP | 0.26
RRIRFRPPRLPRPRPRPSYWPRP | -0.519
RRIRKRPPRLPRPRPRPTDGPRP | 0.396
RRIRVRPPRLPRPRPRPKWKPRP | -0.0377
RRIRRRPPRLPRPRPRPHVLPRP | 0.0842
RRIRDRPPRLPRPRPRPNPFPRP | -0.343
RRIRDRPPRLPRPRPRPGFPPRP | 0.0346
RRIRKRPPRLPRPRPRPHYGPRP | -0.0816
RRIRTRPPRLPRPRPRPSLLPRP | -0.0532

Sequence | shrunken log2 fold change
RRIRPRPPRLPRPRPRPKRPPRP | 0.465
RRIRKRPPRLPRPRPRPWMTPRP | -0.13
RRIRRRPPRLPRPRPRPARRPRP | 0.546
RRIRERPPRLPRPRPRPLAVPRP | -0.0594
RRIRQRPPRLPRPRPRPFLRPRP | -0.0193
RRIRIRPPRLPRPRPRPFCYPRP | -0.514
RRIRWRPPRLPRPRPRPGQNPRP | 0.134
RRIRMRPPRLPRPRPRPITPPRP | 0.0378
RRIRHRPPRLPRPRPRPGKSPRP | -0.0128
RRIRLRPPRLPRPRPRPLLLPRP | -0.00929
RRIRDRPPRLPRPRPRPNWCPRP | 0.0171
RRIRFRPPRLPRPRPRPNARPRP | 0.241
RRIRSRPPRLPRPRPRPQMGPRP | -0.046
RRIRARPPRLPRPRPRPFGCPRP | 0.128
RRIRNRPPRLPRPRPRPWGDPRP | -0.0233
RRIRNRPPRLPRPRPRPDLAPRP | 0.02
RRIRCRPPRLPRPRPRPHIAPRP | -0.413
RRIRARPPRLPRPRPRPSDYPRP | -0.108
RRIRYRPPRLPRPRPRPCTAPRP | -1.4
RRIRYRPPRLPRPRPRPWLCPRP | -0.0909
RRIRHRPPRLPRPRPRPKRFPRP | 0.0543
RRIRWRPPRLPRPRPRPKEHPRP | 0.126
RRIRCRPPRLPRPRPRPSESPRP | 0.258
RRIRSRPPRLPRPRPRPRTKPRP | 0.407
RRIRTRPPRLPRPRPRPVWHPRP | 0.095

Sequence | shrunken log2 fold change
RRIRERPPRLPRPRPRPARRPRP | 0.539
RRIRHRPPRLPRPRPRPWHYPRP | 0.137
RRIRIRPPRLPRPRPRPWCIPRP | -0.0951
RRIRFRPPRLPRPRPRPHLRPRP | -0.19
RRIRKRPPRLPRPRPRPSHIPRP | 0.156
RRIRARPPRLPRPRPRPSPWPRP | 0.348
RRIRARPPRLPRPRPRPWPSPRP | -0.0645
RRIRHRPPRLPRPRPRPHPKPRP | 0.0027
RRIRFRPPRLPRPRPRPIYMPRP | -0.878
RRIRERPPRLPRPRPRPGRGPRP | 0.436
RRIRLRPPRLPRPRPRPGVRPRP | 0.256
RRIRSRPPRLPRPRPRPWEAPRP | 0.019
RRIRTRPPRLPRPRPRPPMGPRP | 0.271
RRIRFRPPRLPRPRPRPHPYPRP | 0.0415
RRIRYRPPRLPRPRPRPDWWPRP | 0.0124
RRIRLRPPRLPRPRPRPMFQPRP | -1.11
RRIRFRPPRLPRPRPRPRQSPRP | 0.443
RRIRVRPPRLPRPRPRPGESPRP | 0.0694
RRIRPRPPRLPRPRPRPCISPRP | -0.0753
RRIRFRPPRLPRPRPRPFDHPRP | -0.281
RRIRQRPPRLPRPRPRPETRPRP | -0.0113
RRIRVRPPRLPRPRPRPRCLPRP | -0.16
RRIRFRPPRLPRPRPRPVVKPRP | -0.461
RRIRSRPPRLPRPRPRPGFCPRP | 0.108
RRIRWRPPRLPRPRPRPVCTPRP | 0.26
